This note sets out measurements from US20040253577A1 (SCHERING, published 2004).

This data set concerns the molecule itself. Description: size exclusion chromatography (Superdex 75), self-association. In general terms: SEC sorts molecules by how far they enter the pores of the column.

B1: HCV NS3 helicase subdomain I (181-324,R257E) mutant (enzyme)
chain: SPVFTDNSSPPAVPQSFQVAHLHAPTGSGKSTKVPAAYAAQGYKVLVLNPSVAATLGFGAYMSKAHGVDPNIRTGVETITTGSPITYSTYGKFLADGGCSGGAYDIIICDECHSTDATSILGIGTVLDQAETAGARLVVLATAT
notes: also called subdomain I mutant; product of pNS3(181-324,R257E)
Take B1: the binding result is “no binding (tested: 6 mg/ml)”.
